Data as given in article PMC2880590.
Like-named read-outs stand apart in the source and are kept apart here.

Columns and labels:
[1] = biological target: activated platelet integrin αIIbβ3 (human (endogenous in platelets)) (UniProt P08514)
[2] = biological target: contortrostatin (CN), native (Agkistrodon contortrix contortrix); experiment: fluorescence polarisation; differing concentrations of purified soluble integrin with a constant amount of FITC-labelled CN or VCN, in solution, steady state; Scatchard analysis and non-linear curve fit
[3] = biological target: vicrostatin (VCN) (Agkistrodon contortrix contortrix (southern copperhead venom gland cDNA library) | not stated); experiment: as above
[4] = biological target: contortrostatin (CN), native (Agkistrodon contortrix contortrix); experiment: fluorescence polarisation
[5] = biological target: vicrostatin (VCN) (Agkistrodon contortrix contortrix (southern copperhead venom gland cDNA library) | not stated); experiment: fluorescence polarisation
[6] = biological target: activated platelet integrin αIIbβ3 (human (endogenous in platelets)) (UniProt P08514); remark: listed apart in the source

Sequence of UniProt P08514 (P08514 32-1039, chain 1 of 2): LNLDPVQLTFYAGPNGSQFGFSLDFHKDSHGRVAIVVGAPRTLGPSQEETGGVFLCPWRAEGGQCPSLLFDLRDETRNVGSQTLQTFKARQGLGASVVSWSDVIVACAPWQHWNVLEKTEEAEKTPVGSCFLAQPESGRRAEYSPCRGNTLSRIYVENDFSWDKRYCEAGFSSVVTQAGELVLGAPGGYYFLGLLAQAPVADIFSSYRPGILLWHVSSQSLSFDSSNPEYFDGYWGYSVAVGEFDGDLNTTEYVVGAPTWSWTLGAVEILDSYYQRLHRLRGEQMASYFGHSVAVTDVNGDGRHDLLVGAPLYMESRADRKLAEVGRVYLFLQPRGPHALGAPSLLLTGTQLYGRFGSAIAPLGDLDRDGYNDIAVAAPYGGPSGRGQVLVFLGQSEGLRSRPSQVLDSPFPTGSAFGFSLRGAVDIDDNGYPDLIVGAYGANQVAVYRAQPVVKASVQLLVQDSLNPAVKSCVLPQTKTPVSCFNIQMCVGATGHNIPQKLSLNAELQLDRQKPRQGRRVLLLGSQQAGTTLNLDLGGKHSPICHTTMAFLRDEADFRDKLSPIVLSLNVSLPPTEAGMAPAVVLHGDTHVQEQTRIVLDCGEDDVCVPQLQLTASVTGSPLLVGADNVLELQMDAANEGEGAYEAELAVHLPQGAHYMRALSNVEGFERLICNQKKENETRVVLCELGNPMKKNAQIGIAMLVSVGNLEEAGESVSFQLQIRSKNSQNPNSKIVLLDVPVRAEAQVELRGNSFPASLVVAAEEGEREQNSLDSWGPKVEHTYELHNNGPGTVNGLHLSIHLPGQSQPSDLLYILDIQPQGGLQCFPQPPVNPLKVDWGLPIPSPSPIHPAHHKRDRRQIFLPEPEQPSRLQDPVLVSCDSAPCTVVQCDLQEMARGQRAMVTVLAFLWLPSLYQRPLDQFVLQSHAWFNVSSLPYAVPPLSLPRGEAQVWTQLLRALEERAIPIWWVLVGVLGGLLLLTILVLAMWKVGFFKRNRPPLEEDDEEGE
Sequence of UniProt P08514 (P05106 27-788, chain 2 of 2, further chain): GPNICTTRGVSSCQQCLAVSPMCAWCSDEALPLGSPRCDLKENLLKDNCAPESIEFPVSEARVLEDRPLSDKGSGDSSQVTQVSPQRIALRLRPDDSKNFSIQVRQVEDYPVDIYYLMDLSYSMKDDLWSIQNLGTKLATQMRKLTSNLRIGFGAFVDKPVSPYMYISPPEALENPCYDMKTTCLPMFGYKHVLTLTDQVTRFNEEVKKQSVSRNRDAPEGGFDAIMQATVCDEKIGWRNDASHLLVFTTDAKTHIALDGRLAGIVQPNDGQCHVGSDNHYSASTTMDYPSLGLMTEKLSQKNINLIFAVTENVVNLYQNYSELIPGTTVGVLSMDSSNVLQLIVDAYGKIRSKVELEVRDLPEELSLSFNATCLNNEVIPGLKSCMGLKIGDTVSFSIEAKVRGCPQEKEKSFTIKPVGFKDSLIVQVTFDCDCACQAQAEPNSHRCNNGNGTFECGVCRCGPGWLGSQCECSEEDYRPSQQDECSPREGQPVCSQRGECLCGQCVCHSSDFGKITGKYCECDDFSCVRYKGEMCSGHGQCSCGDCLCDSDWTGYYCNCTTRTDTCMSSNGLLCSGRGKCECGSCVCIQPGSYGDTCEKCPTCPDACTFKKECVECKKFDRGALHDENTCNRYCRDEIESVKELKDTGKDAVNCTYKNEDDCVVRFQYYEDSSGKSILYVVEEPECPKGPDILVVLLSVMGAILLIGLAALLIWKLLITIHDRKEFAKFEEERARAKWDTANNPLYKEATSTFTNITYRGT

“contortrostatin (CN), native (natural protein)” was tested, and the IC50 of inhibition of ADP-induced platelet aggregation in human platelet-rich plasma (blocks fibrinogen binding to αIIbβ3) [1] was 60 nM.
For “purified soluble integrin αvβ3 (from UniProt P06756 31-1048; P05106 27-718) (receptor)”, the Kd [2] was 6.6 nM and the Kd [3] was 7.4 nM.
For “purified soluble integrin αvβ5 (from UniProt P06756 31-1048; P18084 24-719) (receptor)”, the Kd [4] was 19.5 nM and the Kd [5] was 41.2 nM.
For “soluble recombinant integrin α5β1 (from UniProt P08648 42-1049; P05556 21-728) (receptor)”, the Kd [4] was 191 nM and the Kd [5] was 15.2 nM.
Substance vicrostatin (VCN) (ligand) has an IC50 of inhibition of ADP-induced platelet aggregation in human platelet-rich plasma (blocks fibrinogen binding to αIIbβ3) [6] of 60 nM.
